Several values for one entry are separate records, joined by “and”; a condition that tells them apart may be missing. Equal values may be shown once.
How the values were obtained:
[1] = Arginase specific activity, DAMO colorimetric assay; format: biochemical; settings: 37° C., pH 7.4, purified preparation
Text: The arginase activity of the fusion proteins described herein can be substantially the same, lower, or higher than the activity of the arginase polypeptide from which it is derived. One unit of arginase activity is defined as the amount of fusion protein [e.g., BHA (SEQ ID NO; 75), BAH (SEQ ID NO: 76), N-ABD-rhArg (SEQ ID NO: 49), or N-ABD094-rhArg (SEQ ID NO: 50)] or arginase [e.g., BCA (SEQ ID NO: 70)] that catalyzes the production of 1 μmol of urea per min under standard assay conditions. The specific activity of the enzyme is expressed as activity units per mg of protein. Under standard diacetylmonoxime (DAMO) assay conditions (37° C., pH 7.4), the fusion proteins can have a specific activity that is about 5%, about 10%, about 15%, about 20%, about 25% about 30%, about 35% or about 40% lower or higher than the corresponding arginase polypeptide which it incorporates. In certain embodiments, fusion proteins can have a specific activity that is about 5% to about 40%, about 10% to about 40%, about 10% to about 35%, about 10% to about 30%, about 20% to about 30%, about 20% to about 35%, about 15% to about 30%, about 15% to about 25%, or about 10% to about 20% lower or higher than the corresponding arginase polypeptide which it incorporates.
One unit of enzyme activity is defined as the amount of enzyme (BCA, BHA or BAH) that catalyzes the production of 1 μmol urea per min under standard assay conditions. Specific activity of the enzyme is expressed as activity units per mg of protein.
Briefly, a serial dilution of 0.3 mL BCA solutions together with 0.15 mL water and 720 mM arginine substrate at pH 7.4 was pre-incubated separately at 37° C. for 10 min. The enzymatic reaction was carried out by adding 0.3 mL arginine substrate to the pre-incubated enzyme solutions. […]
The urea formed from the above reaction was quantified using the DAMO direct colorimetric method described by World Health Organization (WHO). […] The absorbance at 540 nm was measured. […]

[2] = DIO mice treated with PEGylated His-rhArg; format: in vivo, C57BL/6J male mice
Procedure: Production of PEGylated His-rhArg (SEQ ID NO: 101) is described in Example 30. C57BL/6J male mice with pre-existing diet-induced obesity (DIO) received i.p. injection of 300U PEGylated His-rhArg [SEQ ID NO: 101], or saline as vehicle control, at 7-day intervals for 5 weeks, while continuously being fed a HFD. […] Regular monitoring of plasma arginine concentrations confirmed that arginine remained at levels below the detection limit of the Biochrom 30 Amino Acid Analyzer (3 μM) throughout the study.

[3] = test system: 4T1 breast cancer allograft; assay: 4T1 breast cancer allograft study; format: in vivo, female nude mice; settings: 500U once per week
Procedure: In another 4T1 breast cancer allograft study, female nude mice (5-6 weeks of age) were used. They were kept in groups of five per cage and provided food and water ad libitum. Cells of 4T1 breast cancer ([…]) were injected subcultuaneously into the right flank of the mice. […] There were one control group (n=8) and three experimental groups, including 500U PEGylated His-rhArg (SEQ ID NO: 101) (n=8), 500U N-ABD-rhArg (SEQ ID NO: 49) (n=6) and 250U N-ABD-rhArg (SEQ ID NO: 49) (n=8). Mice in the control group were injected with 1×PBS weekly. For the 500U ABD-rhArg group and the 250U ABD-rhArg group, mice were injected with 500U and 250U ABD-rhArg once a week, respectively; one group was injected with 500U PEG-rhArg once per week. The mice were sacrificed after 24 days of inoculation (i.e. 14 days after starting of experiment) because of necrosis of tumor in PBS control group. After sacrificing, the mice were dissected. Tumors were collected from the mice and measured their weight. Lungs were also collected and washed with 1×PBS. The lungs were fixed in Bouin's solution overnight and washed with 1×PBS after fixation. Lung metastatic nodules were counted.

B1: PEGylated His-rhArg (conjugate)
chain: MHHHHHHMSAKSRTIGIIGAPFSKGQPRGGVEEGPTVLRKAGLLEKLKEQECDVKDYGDLPFADIPNDSPFQIVKNPRSVGKASEQLAGKVAEVKKNGRISLVLGGDHSLAIGSISGHARVHPDLGVIWVDAHTDINTPLTTTSGNLHGQPVSFLLKELKGKIPDVPGFSWVTPCISAKDIVYIGLRDVDPGEHYILKTLGIKYFSMTEVDRLGIGKVMEETLSYLLGRKKRPIHLSFDVDGLDPSFTPATGTPVVGGLTYREGLYITEEIYKTGLLSGLDIMEVNPSLGKTPEEVTRTVNTAVAITLACFGLAREGNHKPIDYLNPPK
modifications: PEGylated; His-rhArg, Synthesized in Lab
- Specific activity [1]: 245 U/mg
- Specific activity ([1]; listed as PEGylated His-rhArg batch 3): 189 U/mg and 213 U/mg
- bodyweight after treatment ([2]; 300U i.p. at 7-day intervals for 5 weeks, HFD continued): 30 g
- weight of liver, kidney, pancreas and heart vs vehicle-treated DIO mice ([2]; 300U weekly): significantly lower
- weight of fat pad at visceral and subcutaneous depots ([2]; 300U weekly, end of study): significantly reduced
- plasma arginine concentrations throughout the study ([2]; 300U weekly, Biochrom 30 detection limit): < 3 µM
- fasting blood glucose levels vs vehicle-treated DIO mice ([2]; two weeks after treatment): lower
- insulin sensitivity (ITT) vs vehicle-treated DIO mice ([2]; two weeks after treatment): significant increase
- growth of 4T1 solid tumor [3]: inhibited the growth of the aggressive 4T1 solid tumor significantly
- metastasis nodules from the lungs vs control group [3]: very significantly reduced
